Publication doi:10.1101/2023.11.29.569220, “Spartin-mediated lipid transfer facilitates lipid droplet turnover” (bioRxiv, 2023)
Blank lines part the entries; values can stand above or below the molecule they belong to.

Legend:
Test in all cases: native gel or EMSA; blue native PAGE, 4%-16% Bis-Tris gel, 4C, 1-2 ug protein purified in buffer A (50 mM HEPES, 500 mM NaCl, pH 8.0, 1 mM TCEP, 10% glycerol); migration according to MW against NativeMark standards
[1] = molecular target: CeSpartin (C. elegans spartin) (C. elegans)
[2] = molecular target: CtSpartinL (spartin-like protein from Chaetomium thermophilum) (Chaetomium thermophilum)
[3] = molecular target: the molecule itself

stoichiometry N [1]: 3
Molecule: CeSpartin (C. elegans spartin) (natural protein)

stoichiometry N [2]: 3
Molecule: CtSpartinL (spartin-like protein from Chaetomium thermophilum) (natural protein)

B1: HsSpartin (human spartin, SPG20) (natural protein, UniProt Q8N0X7 1-666, looked up)
chain: MEQEPQNGEPAEIKIIREAYKKAFLFVNKGLNTDELGQKEEAKNYYKQGIGHLLRGISISSKESEHTGPGWESARQMQQKMKETLQNVRTRLEILEKGLATSLQNDLQEVPKLYPEFPPKDMCEKLPEPQSFSSAPQHAEVNGNTSTPSAGAVAAPASLSLPSQSCPAEAPPAYTPQAAEGHYTVSYGTDSGEFSSVGEEFYRNHSQPPPLETLGLDADELILIPNGVQIFFVNPAGEVSAPSYPGYLRIVRFLDNSLDTVLNRPPGFLQVCDWLYPLVPDRSPVLKCTAGAYMFPDTMLQAAGCFVGVVLSSELPEDDRELFEDLLRQMSDLRLQANWNRAEEENEFQIPGRTRPSSDQLKEASGTDVKQLDQGNKDVRHKGKRGKRAKDTSSEEVNLSHIVPCEPVPEEKPKELPEWSEKVAHNILSGASWVSWGLVKGAEITGKAIQKGASKLRERIQPEEKPVEVSPAVTKGLYIAKQATGGAAKVSQFLVDGVCTVANCVGKELAPHVKKHGSKLVPESLKKDKDGKSPLDGAMVVAASSVQGFSTVWQGLECAAKCIVNNVSAETVQTVRYKYGYNAGEATHHAVDSAVNVGVTAYNINNIGIKAMVKKTATQTGHTLLEDYQIVDNSQRENQEGAANVNVRGEKDEQTKEVKEAKKKDK
notes: Spartin (SPG20), human, Uniprot Q8N0X7, full-length; gene synthesized and cloned into pCMV10 with an N-terminal 3xFLAG tag; The Expi293 methods describe only elution with 3xFLAG peptide and no protease step; source: Expi293 cells, purified (anti-FLAG resin); not shown: 3xFLAG, N-terminal, cleaved
stoichiometry N [3]: ~3
